We go through 1 molecule from article PMC5123071 (2016).

The experiment concerns the target biotinylated Apaf-1 CARD-LZ-Avi (UniProt O14727 1-137, biotin on the AviTag (BirA)). In words: SPR. Background: In SPR one partner is held on a chip, and binding of the other changes the refractive index at the surface.

biotinylated Apaf-1 CARD-LZ-Avi, sequence (O14727 other isoform, or with tags, fused parts or gaps): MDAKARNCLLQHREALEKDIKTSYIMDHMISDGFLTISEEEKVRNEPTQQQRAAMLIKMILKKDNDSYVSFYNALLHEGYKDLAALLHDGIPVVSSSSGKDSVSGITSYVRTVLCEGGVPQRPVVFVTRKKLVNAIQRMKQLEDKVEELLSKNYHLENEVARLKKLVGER

B1: processed C9/8 chimera (enzyme)
chain 1: MDEADRRLLRRCRLRLVEELQVDQLWDALLSRELFRPHMIEDIQRAGSGSRRDQARQLIIDLETRGSQALPLFISCLEDTGQDMLASFLRTNRQAAKLSKPTLENLTPVVLRPEIRKPEVLRPETPRPVDIGSGGFGSESQTLDKVYQMKSKPRGYCLIINNHNFAKAREKVPKLHSIRDRNGTHLDAGALTTTFEELHFEIKPHDDCTVEQIYEILKIYQLMDHSNMDCFICCILSHGDKGIIYGTDGQEAPIYELTSQFTGLKCPSLAGKPKVFFIQACQGDNYQKGIPVETD
chain 2: LSSPQTRYIPDEADFLLGMATVNNCVSYRNPAEGTWYIQSLCQSLRERCPRGDDILTILTEVNYEVSNKDDKKNMGKQMPQPTFTLRKKLVFPSD
Consider B1, for which binding was put at a Kd of 125 nM.

What is called Kd is the equilibrium constant for the complex coming apart.
